# Measurements from patent US20100284921A1.
# Target: human polyomavirus (JC virus) T-antigen (JC virus (human polyomavirus))
# Assay: competition on T-antigen positive cells, 1 hour: 100-fold excess of unconjugated pAb416 against the ^125I 8 Ab/CLIO conjugate
substance,measurement,value
"pAb416, a monoclonal antibody against T-antigen (IgG, not coupled to CLIO)",percent decrease of binding and internalization of ^125I-Ab-CLIO,> 80%
